Measurements reported in article PMC8484680.

What was measured:
[1] = target: PsFucS1, fucoidan active sulfatase (subfamily S1_13) from Pseudoalteromonas sp. MB47 (Pseudoalteromonas sp. MB47); test: crystal structure; X-ray, 2.50 Å, space group P212121, six molecules in the asymmetric unit; crystals grown at 20 °C in 0.1 M sodium acetate pH 4.6, 0.1 M NaCl, 20% PEG 3350; interfaces analysed with PISA
[2] = target: PsFucS1, fucoidan active sulfatase (subfamily S1_13) from Pseudoalteromonas sp. MB47 (Pseudoalteromonas sp. MB47); test: SEC; analytical SEC, HiLoad 16/600 Superdex 200 pg, room temperature, 200 µl of His-tagged PsFucS1 at 6 mg/ml, 50 mM Tris-HCl pH 8.0, 100 mM NaCl; calibrated with standards of 13.7-440 kDa

stoichiometry N [1]: 6
stoichiometry N [2]: 6
Substance: PsFucS1, fucoidan active sulfatase (subfamily S1_13) from Pseudoalteromonas sp. MB47 (enzyme)
